EP2168984B1

Tests used:
Assay in all cases: cell-based or functional assay
[1] = biological target: recombinant human IL-12 (human) (UniProt P29459)
[2] = biological target: Rhesus IL-12 (rhesus monkey) (UniProt P48091)
Baboon IL-12 (baboon) = biological target: Baboon IL-12 (baboon)
[3] = biological target: Cyno IL-12 (cynomolgus monkey)
murine IL-12 (mouse) = murine IL-12 (mouse) (UniProt P43431)
Sequence of murine IL-12 (mouse) (P43431 23-215, chain 1 of 2): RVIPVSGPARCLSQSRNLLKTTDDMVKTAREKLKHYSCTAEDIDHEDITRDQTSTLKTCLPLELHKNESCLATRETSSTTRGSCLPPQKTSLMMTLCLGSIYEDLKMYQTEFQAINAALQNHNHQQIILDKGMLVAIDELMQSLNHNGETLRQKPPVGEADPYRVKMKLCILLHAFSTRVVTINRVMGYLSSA
Sequence of murine IL-12 (mouse) (P43432 23-335, chain 2 of 2, further chain): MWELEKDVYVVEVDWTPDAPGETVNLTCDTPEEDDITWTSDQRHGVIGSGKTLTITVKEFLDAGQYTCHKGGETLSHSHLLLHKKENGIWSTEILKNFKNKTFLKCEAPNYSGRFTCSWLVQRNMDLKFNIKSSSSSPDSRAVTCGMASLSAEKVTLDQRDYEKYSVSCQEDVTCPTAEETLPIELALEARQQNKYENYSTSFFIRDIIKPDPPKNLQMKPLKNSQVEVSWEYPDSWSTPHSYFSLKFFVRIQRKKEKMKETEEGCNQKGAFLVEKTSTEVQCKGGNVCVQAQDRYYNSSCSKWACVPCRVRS

Sequence of Rhesus IL-12 (rhesus monkey) (P48091 23-219, chain 1 of 2): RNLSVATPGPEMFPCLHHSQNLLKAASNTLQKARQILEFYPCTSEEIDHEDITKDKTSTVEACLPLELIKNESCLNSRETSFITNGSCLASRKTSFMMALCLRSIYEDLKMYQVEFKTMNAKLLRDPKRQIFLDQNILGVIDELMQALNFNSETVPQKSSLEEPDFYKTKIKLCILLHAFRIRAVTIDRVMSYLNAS
Sequence of Rhesus IL-12 (rhesus monkey) (P48095 23-328, chain 2 of 2, further chain): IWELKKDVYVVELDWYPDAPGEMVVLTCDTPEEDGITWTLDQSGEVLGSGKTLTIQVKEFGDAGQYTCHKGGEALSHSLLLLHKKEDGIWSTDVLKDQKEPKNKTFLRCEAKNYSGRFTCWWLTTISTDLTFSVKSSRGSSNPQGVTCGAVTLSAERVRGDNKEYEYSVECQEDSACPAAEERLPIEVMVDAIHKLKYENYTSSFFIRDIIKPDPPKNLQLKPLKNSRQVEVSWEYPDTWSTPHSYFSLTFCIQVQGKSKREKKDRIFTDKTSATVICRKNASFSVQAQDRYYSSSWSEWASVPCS
Sequence of recombinant human IL-12 (human) (P29459 23-219, chain 1 of 2): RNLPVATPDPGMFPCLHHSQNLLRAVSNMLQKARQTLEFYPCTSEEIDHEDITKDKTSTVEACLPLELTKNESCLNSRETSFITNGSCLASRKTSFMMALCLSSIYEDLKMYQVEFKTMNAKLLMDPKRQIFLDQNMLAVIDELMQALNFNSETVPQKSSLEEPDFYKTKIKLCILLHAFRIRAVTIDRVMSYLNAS
Sequence of recombinant human IL-12 (human) (P29460 23-328, chain 2 of 2, further chain): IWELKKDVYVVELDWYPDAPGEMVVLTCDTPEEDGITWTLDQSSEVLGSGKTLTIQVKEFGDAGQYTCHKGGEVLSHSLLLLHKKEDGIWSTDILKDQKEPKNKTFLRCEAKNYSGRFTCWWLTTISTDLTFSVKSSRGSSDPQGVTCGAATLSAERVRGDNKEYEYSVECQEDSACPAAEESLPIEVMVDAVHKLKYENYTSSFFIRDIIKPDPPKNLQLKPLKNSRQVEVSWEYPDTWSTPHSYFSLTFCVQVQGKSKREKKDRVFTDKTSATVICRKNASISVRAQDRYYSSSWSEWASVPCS

Row | Substance | IC50 (M), species cross reactivity bioassay [1] [M] | IC50 (M), species cross reactivity bioassay [2] [M] | IC50 (M), species cross reactivity bioassay (Baboon IL-12 (baboon)) [M] | IC50 (M), species cross reactivity bioassay [3] [M] | IC50 (M), species cross reactivity bioassay (murine IL-12 (mouse)) [M] | PHA blast Assay IC50 (murine IL-12 (mouse)) [nM]
1 | C8.6.2 (antibody) | 5e-11 | 1e-10 | 2e-10 | 1.2e-10 | – | –
2 | C17.15 (antibody) | – | – | – | – | 3e-11 | 0.014
